Laboratory results: patent US20170233490A1 (Hoffmann-La Roche, published 2017)

Columns and labels:
[1] = molecular target: T1, human HER3 Extracellular Domain (ECD) (human, UniProt P21860 20-643); experiment: SPR Biacore 3000, 37 C
T1 construct: human recombinant, 68 kDa; 'closed' conformation without ligand; also called Her3 ECD; Her-3 ECD

HER3 ECD-HRG complex [2] = molecular target: T2, HER3 ECD-HRG complex (human, UniProt P21860 20-643); experiment: SPR Biacore 3000, 37 C
T2 construct: HER3 ECD preincubated with a 3- to 6-fold molar excess of Heregulin ('open' conformation); biotinylated Her3-ECD in the ribosome display; also called HER3-ECD/HRG1β

HER4 ECD-HRG complex = molecular target: T3, HER4 ECD-HRG complex (human, UniProt Q15303 26-651); experiment: SPR Biacore 3000, 37 C
T3 construct: HER4 ECD preincubated with a 5-fold molar excess of Heregulin
T3 sequence 1: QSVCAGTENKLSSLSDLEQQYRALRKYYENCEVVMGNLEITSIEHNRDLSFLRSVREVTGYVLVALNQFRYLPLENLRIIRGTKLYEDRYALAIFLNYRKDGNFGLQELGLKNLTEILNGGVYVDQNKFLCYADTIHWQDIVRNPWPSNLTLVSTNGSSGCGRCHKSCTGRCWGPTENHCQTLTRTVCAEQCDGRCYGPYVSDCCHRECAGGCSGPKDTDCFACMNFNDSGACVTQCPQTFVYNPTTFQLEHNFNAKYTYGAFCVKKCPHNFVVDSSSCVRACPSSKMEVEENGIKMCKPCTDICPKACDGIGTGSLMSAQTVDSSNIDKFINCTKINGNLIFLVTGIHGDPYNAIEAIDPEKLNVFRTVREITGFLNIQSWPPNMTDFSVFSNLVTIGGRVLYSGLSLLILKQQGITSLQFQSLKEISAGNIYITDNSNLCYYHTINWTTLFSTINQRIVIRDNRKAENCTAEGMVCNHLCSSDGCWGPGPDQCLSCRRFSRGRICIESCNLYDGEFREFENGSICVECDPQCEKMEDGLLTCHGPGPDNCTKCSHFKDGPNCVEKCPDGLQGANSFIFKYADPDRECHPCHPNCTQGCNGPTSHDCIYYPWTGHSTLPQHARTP
T3 sequence 2: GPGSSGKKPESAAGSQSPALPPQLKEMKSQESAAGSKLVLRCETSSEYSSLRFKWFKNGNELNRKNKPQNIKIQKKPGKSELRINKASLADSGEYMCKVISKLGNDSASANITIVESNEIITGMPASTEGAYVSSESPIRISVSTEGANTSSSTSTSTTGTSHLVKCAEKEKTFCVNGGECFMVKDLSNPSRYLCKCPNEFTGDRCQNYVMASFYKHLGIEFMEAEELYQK

[3] = molecular target: T1, human HER3 Extracellular Domain (ECD); experiment: SPR Biacore 3000, antibody captured, 25 C
Description: (§1) A CMS series sensor was mounted into the system and was normalized in HBS-ET buffer (10 mM HEPES pH 7.4, 150 mM NaCl, 3 mM EDTA, 0.005% w/v Tween 20) according to the manufacturer's instructions. The sample buffer was the system buffer supplemented with 1 mg/ml CMD (Carboxymethyldextran). The system operated at 25° C. 10000 RU RAM-Fcγ (relative units of Fcγ-fragment Rabbit Anti-Mouse IgG/Jackson Laboratories) were immobilized according to the manufacturer's instructions using EDC/NHS chemistry on all flow cells. The sensor was deactivated using 1M ethanolamine. Analytes in solution were injected at 100 μl/min at different concentration steps of 0 nM, 1.1 nM, 3.7 nM, 11.1 nM, 33.1 nM and 90 nM for 2 min. The dissociation was monitored for 5 min. Acidic regeneration of the sensor surface was achieved using three consecutive injections of 10 mM Glycine pH 1.7 at 30 μl/min for 60 sec. Kinetic data were evaluated according to a Langmuir fit.

HER3 ECD-HRG complex [4] = molecular target: T2, HER3 ECD-HRG complex; experiment: SPR Biacore 3000, antibody captured, 25 C
Description: as §1

TtSlyD-FKBP-Her3 = molecular target: T4, TtSlyD-FKBP-Her3; experiment: SPR Biacore 3000, antibody captured, 25 C
T4 construct: N-terminal Met present or not; also called thermo SlyD-Her3; ttSlyD-Her3
T4 chain: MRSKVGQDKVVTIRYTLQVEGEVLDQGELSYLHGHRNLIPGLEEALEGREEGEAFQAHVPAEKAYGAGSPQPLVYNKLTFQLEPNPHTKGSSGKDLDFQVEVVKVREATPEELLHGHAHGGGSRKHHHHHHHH
Description: as §1

[5] = molecular target: T5, human HER2 (full length, on cells) (human, UniProt P04626 23-1255); experiment: IHC (Ventana Benchmark XT) on formalin-fixed, paraffin-embedded HEK293 cells transiently transfected with full length HER2
T5 construct: HEK293 cells transfected with full length HER2 (IHC); MCF-7 cells (co-immunoprecipitation)
Description: All selected clones were tested for reactivity and specificity in IHC. […] After an additional fixation in formalin overnight the Agarose blocks were embedded in paraffin. Untransfected HEK293 cells were used as negative controls and treated accordingly to the transfected cells. After paraffin embedding 3 μm thin sections were prepared using a microtome. The sections were mounted on glass microscopy slides and dried for 2 h. All further steps of the immunohistochemical staining procedure were carried out using a Ventana Benchmark XT. The slides were dewaxed and antigen retrieval was performed by applying heat for 1 hour. For antigen retrieval the Ventana buffer CC1 was used. The antibodies were used at a concentration of 1 μg/ml. For the detection of bound antibody the Ventana UltraView detection kit was used.

Kd [1]: 4 nM
MR [1]: 0.6
koff [1]: 8.1e-05 s⁻¹
kon [1]: 21000 M⁻¹ s⁻¹
t/2diss [1]: 144 min
Kd (HER3 ECD-HRG complex [2]): 7 nM
MR (HER3 ECD-HRG complex [2]): 0.7
koff (HER3 ECD-HRG complex [2]): 0.00057 s⁻¹
kon (HER3 ECD-HRG complex [2]): 79000 M⁻¹ s⁻¹
t/2diss (HER3 ECD-HRG complex [2]): 20 min
Kd (HER4 ECD-HRG complex): 6 nM
MR (HER4 ECD-HRG complex): 0.9
koff (HER4 ECD-HRG complex): 0.0033 s⁻¹
kon (HER4 ECD-HRG complex): 580000 M⁻¹ s⁻¹
t/2diss (HER4 ECD-HRG complex): 4 min
BL (Binding Late) [3]: 36 RU
MR (Molar Ratio) [3]: 0.2
kon [3]: 20400 M⁻¹ s⁻¹
t/2-diss [3]: 28 min
BL (Binding Late) (HER3 ECD-HRG complex [4]): 199 RU
MR (Molar Ratio) (HER3 ECD-HRG complex [4]): 0.8
kon (HER3 ECD-HRG complex [4]): 66000 M⁻¹ s⁻¹
t/2-diss (HER3 ECD-HRG complex [4]): 18 min
BL (Binding Late) (TtSlyD-FKBP-Her3): 68.1 RU
MR (Molar Ratio) (TtSlyD-FKBP-Her3): 1.5
kon (TtSlyD-FKBP-Her3): 87500 M⁻¹ s⁻¹
t/2-diss (TtSlyD-FKBP-Her3): 4.9 min
binding result [5]: no binding (tested: 1 µg/ml)
B1: anti-HER3/HER4 antibody M-05-74 (antibody, V domains shown)
VH: QVQLQQSGAELAKPGASVKMSCKTSGYTLTDYWIHWVKQRPGQGLEWIGYINPYTGYTESNQKFKDKATLTADKSSNTAYIQLSSLTSEDSAVYYCARPYYYGDYWGQGTTLTVSS
VL: QIVLTQSPAIMSASPGERVTITCSASSSVSYMHWFQQKPGTSPKLLIYSTSNLASGVPARFSGSGSGTSYSLTISRMEAEDAATYYCQQRSSYPFTFGSGTKLEIK
notes: murine monoclonal IgG from hybridoma (supernatant or purified), bivalent; also called M-074; M-5-74
